The supplement of paper PMC5998384

Experiments:
HeLa Kyoto [1] = test: solubility in G1/S (NP-40 vs SDS abundance) (log2 ratio); higher = more soluble; details: cell cycle stage: G1/S
HeLa Kyoto [2] = test: melting temperature (median over replicates), in situ; higher = more thermally stable
HeLa Kyoto [3] = test: solubility change mitosis vs G1/S (difference of NP-40 vs SDS log2 ratios) (log2 ratio difference); higher = more soluble in mitosis
HeLa Kyoto [4] = test: thermal stability score vs G1/S (z-score of summed log2 fold changes over temperatures); higher = more thermally stable than in G1/S
[5] = cell cycle stage: early G1 (4.5 h after nocodazole release)
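Throughout, for melting temperature (median over replicates), in situ: HeLa Kyoto cells synchronized by double thymidine or nocodazole block, proteins quantified by TMT10plex mass spectrometry, three independent biological replicates.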
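Throughout, for solubility change mitosis vs G1/S (difference of NP-40 vs SDS log2 ratios): synchronized HeLa Kyoto cells (double thymidine block for G1/S, nocodazole release for mitosis), protein amounts in NP-40 versus SDS lysates quantified by mass spectrometry, three biological replicates.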
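Throughout, for solubility in G1/S (NP-40 vs SDS abundance): HeLa Kyoto cells arrested at G1/S by double thymidine block, proteins quantified by TMT10plex mass spectrometry in mild NP-40 versus SDS extracts, three biological replicates.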
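Throughout, for thermal stability score vs G1/S (z-score of summed log2 fold changes over temperatures): synchronized HeLa Kyoto cells, proteins quantified by TMT10plex mass spectrometry, three biological replicates, mitosis taken 0.5 h after nocodazole release, G1/S directly after double thymidine block.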

Sequence of AFG3L2 (chain, as listed by the source): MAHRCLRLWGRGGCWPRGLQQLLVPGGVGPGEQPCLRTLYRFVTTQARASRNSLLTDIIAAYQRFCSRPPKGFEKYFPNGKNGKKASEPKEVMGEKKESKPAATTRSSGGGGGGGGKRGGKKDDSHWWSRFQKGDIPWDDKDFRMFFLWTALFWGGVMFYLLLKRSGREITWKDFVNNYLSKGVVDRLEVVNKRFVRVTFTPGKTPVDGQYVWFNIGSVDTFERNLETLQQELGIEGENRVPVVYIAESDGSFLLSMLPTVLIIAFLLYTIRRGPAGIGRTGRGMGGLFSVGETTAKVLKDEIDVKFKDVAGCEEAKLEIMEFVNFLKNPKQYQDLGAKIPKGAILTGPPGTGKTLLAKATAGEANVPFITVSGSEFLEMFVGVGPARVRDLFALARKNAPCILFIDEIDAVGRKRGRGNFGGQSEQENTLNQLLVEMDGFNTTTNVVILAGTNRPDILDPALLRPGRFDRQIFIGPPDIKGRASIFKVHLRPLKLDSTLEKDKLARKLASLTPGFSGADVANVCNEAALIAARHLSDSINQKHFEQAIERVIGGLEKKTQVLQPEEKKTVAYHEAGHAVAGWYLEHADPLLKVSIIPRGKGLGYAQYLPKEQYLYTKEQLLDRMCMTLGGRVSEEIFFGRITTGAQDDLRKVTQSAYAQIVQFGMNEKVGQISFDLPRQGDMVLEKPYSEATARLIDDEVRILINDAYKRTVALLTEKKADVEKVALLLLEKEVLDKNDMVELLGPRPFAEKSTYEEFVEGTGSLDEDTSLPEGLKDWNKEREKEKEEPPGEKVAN

Substance	solubility in G1/S (log2) (HeLa Kyoto [1])	melting temperature (HeLa Kyoto [2]; cell cycle stage: G1/S) [°C]	melting temperature (HeLa Kyoto [2]; cell cycle stage: mitosis) [°C]	solubility change mitosis (log2) (HeLa Kyoto [3])	thermal stability score (HeLa Kyoto [4]; [5])	thermal stability score (HeLa Kyoto [4]; cell cycle stage: mitosis)
MPALSTGSGSDTGLYELLAALPAQLQPHVDSQEDLTFLWDMFGEKSLHSLVKIHEKLHYYEKQSPVPILHGAAALADDLAEELQNKPLNSEIRELLKLLSKPNVKALLSVHDTVAQKNYDPVLPPMPEDIDDEEDSVKIIRLVKNREPLGATIKKDEQTGAIIVARIMRGGAADRSGLIHVGDELREVNGIPVEDKRPEEIIQILAQSQGAITFKIIPGSKEETPSKEGKMFIKALFDYNPNEDKAIPCKEAGLSFKKGDILQIMSQDDATWWQAKHEADANPRAGLIPSKHFQERRLALRRPEILVQPLKVSNRKSSGFRKSFRLSRKDKKTNKSMYECKKSDQYDTADVPTYEEVTPYRRQTNEKYRLVVLVGPVGVGLNELKRKLLISDTQHYGVTVPHTTRARRSQESDGVEYIFISKHLFETDVQNNKFIEYGEYKNNYYGTSIDSVRSVLAKNKVCLLDVQPHTVKHLRTLEFKPYVIFIKPPSIERLRETRKNAKIISSRDDQGAAKPFTEEDFQEMIKSAQIMESQYGHLFDKIIINDDLTVAFNELKTTFDKLETETHWVPVSWLHS [MPP7]	-0.0584	47.8	48.5	0.00867	0.55	1.76
AFG3L2	0.107	51.8	51.9	-0.0792	2.84	0.443
MATTATCTRFTDDYQLFEELGKGAFSVVRRCVKKTSTQEYAAKIINTKKLSARDHQKLEREARICRLLKHPNIVRLHDSISEEGFHYLVFDLVTGGELFEDIVAREYYSEADASHCIHQILESVNHIHQHDIVHRDLKPENLLLASKCKGAAVKLADFGLAIEVQGEQQAWFGFAGTPGYLSPEVLRKDPYGKPVDIWACGVILYILLVGYPPFWDEDQHKLYQQIKAGAYDFPSPEWDTVTPEAKNLINQMLTINPAKRITADQALKHPWVCQRSTVASMMHRQETVECLRKFNARRKLKGAILTTMLVSRNFSAAKSLLNKKSDGGVKKRKSSSSVHLMPQSNNKNSLVSPAQEPAPLQTAMEPQTTVVHNATDGIKGSTESCNTTTEDEDLKGRVPEGRSSRDRTAPSAGMQPQPSLCSSAMRKQEIIKITEQLIEAINNGDFEAYTKICDPGLTSFEPEALGNLVEGMDFHKFYFENLLSKNSKPIHTTILNPHVHVIGEDAACIAYIRLTQYIDGQGRPRTSQSEETRVWHRRDGKWLNVHYHCSGAPAAPLQ [CAMK2G]	-0.382	49.6	48.9	0.162	-0.442	-0.0382
ARHGEF5	0.0254	50.6	51.4	-0.0134	0.0128	1.32
MALQTLQSSWVTFRKILSHFPEELSLAFVYGSGVYRQAGPSSDQKNAMLDFVFTVDDPVAWHSKNLKKNWSHYSFLKVLGPKIITSIQNNYGAGVYYNSLIMCNGRLIKYGVISTNVLIEDLLNWNNLYIAGRLQKPVKIISVNEDVTLRSALDRNLKSAVTAAFLMLPESFSEEDLFIEIAGLSYSGDFRMVVGEDKTKVLNIVKPNIAHFRELYGSILQENPQVVYKSQQGWLEIDKSPEGQFTQLMTLPKTLQQQINHIMDPPGKNRDVEETLFQVAHDPDCGDVVRLGLSAIVRPSSIRQSTKGIFTAGKSFGNPCVTYLLTEWLPHSWLQCKALYLLGACEMLSFDGHKLGYCSKVQTGITAAEPGGRTMSDHWQCCWKLYCPSEFSETLPVCRVFPSYCFIYQSYRCIGLQKQQHLCSPSSSPSLRQLLPSVLVGYFCCYCHFSKW [TAMM41]	0.0094	52.6	52.8	-0.163	-1.37	-1.38
MVQAWYMDDAPGDPRQPHRPDPGRPVGLEQLRRLGVLYWKLDADKYENDPELEKIRRERNYSWMDIITICKDKLPNYEEKIKMFYEEHLHLDDEIRYILDGSGYFDVRDKEDQWIRIFMEKGDMVTLPAGIYHRFTVDEKNYTKAMRLFVGEPVWTAYNRPADHFEARGQYVKFLAQTA [ADI1]	0.18	51.1	51.1	-0.0474	-0.911	-0.735
MSSILPFTPPVVKRLLGWKKSAGGSGGAGGGEQNGQEEKWCEKAVKSLVKKLKKTGRLDELEKAITTQNCNTKCVTIPSTCSEIWGLSTPNTIDQWDTTGLYSFSEQTRSLDGRLQVSHRKGLPHVIYCRLWRWPDLHSHHELKAIENCEYAFNLKKDEVCVNPYHYQRVETPVLPPVLVPRHTEILTELPPLDDYTHSIPENTNFPAGIEPQSNYIPETPPPGYISEDGETSDQQLNQSMDTGSPAELSPTTLSPVNHSLDLQPVTYSEPAFWCSIAYYELNQRVGETFHASQPSLTVDGFTDPSNSERFCLGLLSNVNRNATVEMTRRHIGRGVRLYYIGGEVFAECLSDSAIFVQSPNCNQRYGWHPATVCKIPPGCNLKIFNNQEFAALLAQSVNQGFEAVYQLTRMCTIRMSFVKGWGAEYRRQTVTSTPCWIELHLNGPLQWLDKVLTQMGSPSVRCSSMS [SMAD2]	-0.0287	50.5	49.9	-0.177	0.527	1.37
MSGSFELSVQDLNDLLSDGSGCYSLPSQPCNEVTPRIYVGNASVAQDIPKLQKLGITHVLNAAEGRSFMHVNTNANFYKDSGITYLGIKANDTQEFNLSAYFERAADFIDQALAQKNGRVLVHCREGYSRSPTLVIAYLMMRQKMDVKSALSIVRQNREIGPNDGFLAQLCQLNDRLAKEGKLKP [DUSP3]	0.676	50.4	51	0.131	0.0996	-0.0543
MASEELQKDLEEVKVLLEKATRKRVRDALTAEKSKIETEIKNKMQQKSQKKAELLDNEKPAAVVAPITTGYTVKISNYGWDQSDKFVKIYITLTGVHQVPTENVQVHFTERSFDLLVKNLNGKSYSMIVNNLLKPISVEGSSKKVKTDTVLILCRKKVENTRWDYLTQVEKECKEKEKPSYDTETDPSEGLMNVLKKIYEDGDDDMKRTINKAWVESREKQAKGDTEF [CACYBP]	0.412	52.2	52.2	-0.0888	0.00133	-1.11
